2 molecules from patent publication US20070020688A1, “Measurement method using biosensor” (FUJI PHOTO FILM CO., LTD., priority 2005, published 2007) can be followed below.

The target in series [1] is T1, trypsin (Bos taurus, UniProt P00760).
T1 construct: purchased Worthington
T1 sequence (P00760 24-246): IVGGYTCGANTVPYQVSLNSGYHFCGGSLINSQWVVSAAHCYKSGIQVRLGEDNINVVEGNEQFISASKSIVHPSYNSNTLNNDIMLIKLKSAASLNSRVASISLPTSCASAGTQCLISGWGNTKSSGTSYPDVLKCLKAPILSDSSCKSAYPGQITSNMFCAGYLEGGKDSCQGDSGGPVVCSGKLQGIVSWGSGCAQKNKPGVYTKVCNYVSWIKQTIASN
Put plainly: Compound binding amount on trypsin-immobilized hydrogel-coated chip by surface plasmon resonance. To be noted: for Compound binding amount (RU): compound 0.01 mM, 3 minutes. Here is the method: Trypsin (manufactured by Worthington) was immobilized on the hydrogel-coated measurement chip produced in (2) above. Measurement was carried out using the surface plasmon resonance measurement device described in (1) above.
A mixed solution of 1-ethyl-2,3-dimethylaminopropylcarbodiimide (400 mM) and N-hydroxysuccinimide (100 mM) was added to a hydrogel-coated chip, followed by leaving at rest for 20 minutes. Thereafter, the resultant product was washed with a 10 mM phosphate buffer. Subsequently, the aforementioned trypsin solution was added thereto, followed by leaving at rest for the period of time shown in Table 1. Thereafter, the resultant product was subjected to a primary washing with a 10 mM phosphate buffer, and then subjected to a secondary washing with the washing solution shown in Table 1. Thereafter, the resultant product was further washed with a 10 mM phosphate buffer. It is to be noted that it has been known that if such a secondary washing is carried out with 10 mM NaOH, non-specifically adsorbed proteins are washed out, and a baseline drift thereby becomes stable during interaction measurement.
By the aforementioned operations, trypsin was immobilized on the surface of the measurement chip via a covalent bond. The amount by which resonance signals (RU value) obtained before the addition of trypsin and after washing had changed was defined as the immobilized amount of trypsin (RU value).
The measurement chip was washed with a 10 mM phosphate buffer, and it was then equipped in the surface plasmon resonance device of the present example. Thereafter, leupeptin (0.01 mM; phosphate buffer pH 7.4), the following kinase inhibitor, and an amphipathic compound (0.01 mM; phosphate buffer pH 7.4) were added thereto, followed by leaving at rest for 3 minutes. The amount by which resonance signals (RU value) had changed was defined as the binding amount of the compound.

Series [2] has as its target T1, trypsin. Put plainly: Enzyme activity of immobilized trypsin, fluorescence of decomposed Bz-Arg-MCA substrate. Type of series: biochemical. To be noted: for Enzyme activity (fluorescence intensity): 0.1 mM Bz-Arg-MCA, 120 minutes. Here is the method:
Using the chip on which trypsin had been immobilized as described in (1) above, the enzyme activity of trypsin was measured. […] Specifically, a substrate specific to trypsin (benzoyl-L-arginine-4-methylcoumarin-7-amide (hereinafter referred to as Bz-Arg-MCA); Peptide Institute, Inc.) was allowed to react with trypsin, and fluorescence in the decomposed product was measured.
The 10 mM phosphate buffer contained in the measurement chip was removed, and 0.1 mM Bz-Arg-MCA was then added thereto. The reaction was then carried out for 120 minutes.
Fluorescence measurement was carried out regarding fluorescence for each of the aforementioned reaction times, using the BMGLabTechnologies FLUOstar measurement device (excitation: 380 nm; and emission: 460 nm).

Take `CC(=O)N[C@@H](CC(C)C)C(=O)N[C@@H](CC(C)C)C(=O)N[C@H](C=O)CCCNC(=N)N` [Leupeptin, leupeptin]: the “Compound binding amount (RU)” value on trypsin [1] (Experiment No. 1: trypsin immobilized in phosphate buffer (pH 7.4), 10 mg/ml, 1 hr, secondary washing phosphate buffer (pH 7.4)) is 25 RU; at trypsin [1] (Experiment No. 2: trypsin immobilized in phosphate buffer (pH 7.4), 2 mg/ml, 1 hr, secondary washing phosphate buffer (pH 7.4)), 19 RU; at trypsin [1] (Experiment No. 3: trypsin immobilized in phosphate buffer (pH 7.4), 2 mg/ml, 1 hr, secondary washing 10 mM NaOH) it was 8 RU; on trypsin [1] (Experiment No. 4: trypsin immobilized in acetate buffer (pH 5.0), 0.1 mg/ml, 0.2 hr, secondary washing phosphate buffer (pH 7.4)) it was 16 RU. On trypsin [1] (surface of experiment No. 2), the “Binding to the surface, in words” value was “binds to the surface”.

With Trypsin, the “Activity value (enzyme activity/immobilized amount)” value was found to be 0.055 in the series with trypsin [2] (Experiment No. 1), 0.238 in the series with trypsin [2] (Experiment No. 2), 0.160 with trypsin [2] (Experiment No. 3) and 0.008 with trypsin [2] (Experiment No. 4). Also, the “Enzyme activity (fluorescence intensity)” value in the series with trypsin [2] (Experiment No. 1: phosphate buffer (pH 7.4), 10 mg/ml, 1 hr, washing phosphate buffer (pH 7.4)) was determined as 230; with trypsin [2] (Experiment No. 2: phosphate buffer (pH 7.4), 2 mg/ml, 1 hr, washing phosphate buffer (pH 7.4)) it was 615; with trypsin [2] (Experiment No. 3: phosphate buffer (pH 7.4), 2 mg/ml, 1 hr, washing 10 mM NaOH) it was 370; with trypsin [2] (Experiment No. 4: acetate buffer (pH 5.0), 0.1 mg/ml, 0.2 hr, washing phosphate buffer (pH 7.4)), 40.
